# In article PMC10197177:
# Key:
# Assay in all cases: ELONA
# Conditions in all cases: pH 7.4, room temperature, spike immobilized
# [1] = molecular target: Spike protein, Alpha (SARS-CoV-2 (Alpha variant)) (UniProt P0DTC2)
# [2] = molecular target: Spike protein, Beta (SARS-CoV-2 (Beta variant)) (UniProt P0DTC2)
# [3] = molecular target: Spike protein, Delta (SARS-CoV-2 (Delta variant)) (UniProt P0DTC2)
# [4] = molecular target: Spike protein, Omicron (SARS-CoV-2 (Omicron variant)) (UniProt P0DTC2)
sequence,measurement,setting,value
AATGGATCCACATCTACGAGCTCGAACGCCCGGAGGAGACGGGGGCAGGGCGTGTTCACTGCAGACTTGACGAAGCT [K1 (truncated working aptamer)],Kd,[1],0.034 nM
same,Kd,[2],0.034 nM
same,Kd,[3],0.037 nM
same,Kd,[4],0.026 nM
ATCTACGAATTCTCCGCCAAGATAGAGGGTGGGCCGCGGAGAATTCACTGC [M40 (truncated working aptamer)],Kd,[1],0.28 nM
same,Kd,[2],0.276 nM
same,Kd,[3],0.187 nM
same,Kd,[4],0.165 nM
